From patent EP1506972A1 (Genentech Inc., dated 2005)
Substitutions are numbered along the chain they refer to.

Legend:
Assay in all cases: competitive phage ELISA, soluble IGFBP-1 vs coated IGFBP-1
[1] = molecular target: T1, IGF-I S1A (G1S-A70V background) displayed on phage (human; bacteriophage M13)
T1 construct: range 249-406; the result is Ala 1

[2] = molecular target: T2, IGF-I E46A (G1S-A70V background) displayed on phage (human; bacteriophage M13)
T2 construct: not shown: Display carrier: M13 gene III protein fragment (residues 249-406) and the junction to it
T2 chain: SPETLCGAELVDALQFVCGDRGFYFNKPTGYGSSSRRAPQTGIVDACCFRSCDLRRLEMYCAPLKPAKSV

[3] = molecular target: T3, IGF-I D12A (G1S-A70V background) displayed on phage (human; bacteriophage M13)
T3 construct: not shown: M13 gene III fragment (residues 249-406, display carrier) and the IGF-g3 junction
T3 chain: T2 chain with D12A, A46E

[4] = molecular target: T4, IGF-I G30A (G1S-A70V background) displayed on phage (human; bacteriophage M13)
T4 construct: not shown: Display carrier: M13 gene III protein fragment (residues 249-406) and the junction to it
T4 chain: T2 chain with G30A, A46E

[5] = molecular target: T5, IGF-I D45A (G1S-A70V background) displayed on phage (human; bacteriophage M13)
T5 construct: not shown: Display carrier: M13 gene III protein fragment (residues 249-406) and the junction to it
T5 chain: T2 chain with D45A, A46E

[6] = molecular target: T6, IGF-I D53A (G1S-A70V background) displayed on phage (human; bacteriophage M13)
T6 construct: not shown: Display carrier: M13 gene III protein fragment (residues 249-406) and the junction to it
T6 chain: T2 chain with A46E, D53A

[7] = molecular target: T7, IGF-I L64A (G1S-A70V background) displayed on phage (human; bacteriophage M13)
T7 construct: not shown: M13 gene III fragment (residues 249-406), the display partner, and its junction to IGF-I
T7 chain: T2 chain with A46E, L64A

[8] = molecular target: T8, IGF-I V17A (G1S-A70V background) displayed on phage (human; bacteriophage M13)
T8 construct: not shown: M13 gene III fragment (residues 249-406, display carrier) and the IGF-g3 junction
T8 chain: T2 chain with V17A, A46E

[9] = molecular target: T9, IGF-I P28A (G1S-A70V background) displayed on phage (human; bacteriophage M13)
T9 construct: not shown: Display carrier: M13 gene III protein fragment (residues 249-406) and the junction to it
T9 chain: T2 chain with P28A, A46E

[10] = molecular target: T10, IGF-I L54A (G1S-A70V background) displayed on phage (human; bacteriophage M13)
T10 construct: not shown: Display carrier: M13 gene III protein fragment (residues 249-406) and the junction to it
T10 chain: T2 chain with A46E, L54A

[11] = molecular target: T11, IGF-I G32A (G1S-A70V background) displayed on phage (human; bacteriophage M13)
T11 construct: not shown: Display carrier: M13 gene III protein fragment (residues 249-406) and the junction to it
T11 chain: T2 chain with G32A, A46E

[12] = molecular target: T12, IGF-I L14A (G1S-A70V background) displayed on phage (human; bacteriophage M13)
T12 construct: not shown: M13 gene III fragment (residues 249-406, display carrier) and the IGF-g3 junction
T12 chain: T2 chain with L14A, A46E

[13] = molecular target: T13, IGF-I M59A (G1S-A70V background) displayed on phage (human; bacteriophage M13)
T13 construct: not shown: M13 gene III fragment (residues 249-406), the display partner, and its junction to IGF-I
T13 chain: T2 chain with A46E, M59A

[14] = molecular target: T14, IGF-I E58A (G1S-A70V background) displayed on phage (human; bacteriophage M13)
T14 construct: not shown: M13 gene III fragment (residues 249-406), the display partner, and its junction to IGF-I
T14 chain: T2 chain with A46E, E58A

[15] = molecular target: T15, des(1-2)-IGF-I displayed on phage (human; bacteriophage M13)
T15 construct: range 249-406; Lacks positions 1 and 2

[16] = molecular target: T16, IGF-I Y31A (G1S-A70V background) displayed on phage (human; bacteriophage M13)
T16 construct: not shown: Display carrier: M13 gene III protein fragment (residues 249-406) and the junction to it
T16 chain: T2 chain with Y31A, A46E

[17] = molecular target: T17, IGF-I G7A (G1S-A70V background) displayed on phage (human; bacteriophage M13)
T17 construct: not shown: M13 gene III fragment (residues 249-406, display carrier) and the IGF-g3 junction
T17 chain: T2 chain with G7A, A46E

[18] = molecular target: T18, IGF-I K65A (G1S-A70V background) displayed on phage (human; bacteriophage M13)
T18 construct: not shown: M13 gene III fragment (residues 249-406), the display partner, and its junction to IGF-I
T18 chain: T2 chain with A46E, K65A

- relative IC50 (IC50mut/IC50 G1S-A70V) [1]: 0.6 fold
- relative IC50 (IC50mut/IC50 G1S-A70V) [2]: 1 fold
- relative IC50 (IC50mut/IC50 G1S-A70V) [3]: 0.5 fold
- relative IC50 (IC50mut/IC50 G1S-A70V) [4]: 0.9 fold
- relative IC50 (IC50mut/IC50 G1S-A70V) [5]: 0.6 fold
- relative IC50 (IC50mut/IC50 G1S-A70V) [6]: 1.9 fold
- relative IC50 (IC50mut/IC50 G1S-A70V) [7]: 1.5 fold
- relative IC50 (IC50mut/IC50 G1S-A70V) [8]: 5.2 fold
- relative IC50 (IC50mut/IC50 G1S-A70V) [9]: 1.1 fold
- relative IC50 (IC50mut/IC50 G1S-A70V) [10]: 2.8 fold
- relative IC50 (IC50mut/IC50 G1S-A70V) [11]: 1.3 fold
- relative IC50 (IC50mut/IC50 G1S-A70V) [12]: 4.5 fold
- relative IC50 (IC50mut/IC50 G1S-A70V) [13]: 1.6 fold
- relative IC50 (IC50mut/IC50 G1S-A70V) [14]: 1.5 fold
- relative IC50 (IC50mut/IC50 G1S-A70V) [15]: 0.6 fold
- relative IC50 (IC50mut/IC50 G1S-A70V) [16]: 0.8 fold
- relative IC50 (IC50mut/IC50 G1S-A70V) [17]: > 100 fold
- relative IC50 (IC50mut/IC50 G1S-A70V) [18]: 1.5 fold
B1: human IGFBP-1 (other, UniProt P08833 26-259, looked up)
chain: APWQCAPCSAEKLALCPPVSASCSEVTRSAGCGCCPMCALPLGAACGVATARCARGLSCRALPGEQQPLHALTRGQGACVQESDASAPHAAEAGSPESPESTEITEEELLDNFHLMAPSEEDHSILWDAISTYDGSKALHVTNIKKWKEPCRIELYRVVESLAKAQETSGEEISKFYLPNCNKNGFYHSRQCETSMDGEAGLCWCVYPWNGKRIPGSPEIRGDPNCQIYFNVQN
notes: Secreted recombinant protein
